Target: T1, GRSF1 wild type (Homo sapiens, UniProt Q12849 118-480)
T1 sequence: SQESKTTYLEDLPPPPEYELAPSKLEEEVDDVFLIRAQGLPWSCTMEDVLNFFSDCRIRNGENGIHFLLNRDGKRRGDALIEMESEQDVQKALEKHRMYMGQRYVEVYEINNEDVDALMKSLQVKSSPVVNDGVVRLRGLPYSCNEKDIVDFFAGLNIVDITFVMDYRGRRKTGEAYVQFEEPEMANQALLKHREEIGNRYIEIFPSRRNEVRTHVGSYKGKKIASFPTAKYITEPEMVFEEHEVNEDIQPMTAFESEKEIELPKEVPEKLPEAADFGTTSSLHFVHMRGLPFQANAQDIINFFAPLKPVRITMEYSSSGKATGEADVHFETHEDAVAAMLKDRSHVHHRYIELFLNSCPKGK
Test: EMSA; 75 ug/ml heparin; EMSA: 5 nM RNA, 0-2560 nM protein, 10 mM Tris-HCl pH 8.0, 2.5 mM KCl, 30 mM NaCl, 1 mM EDTA, 0.2 mM DTT, 75 ug/ml heparin, 30 min at 30 C; 7% PAGE
Conditions: protein: recombinant; tags: N-terminal 6xHis-SUMO, cleaved by SUMO protease; label: 5'-32P; predicted secondary structure; G4-forming

B1: tRNA-like (structured_RNA)
RNA: GGGCUGUGACUAGUAUGUUGAGUCCUGUAAGUAGGAGAGUGAUAUUUGAUCAGGAGAACGUGGUUACUAGCACCCA
Kd: ~100 nM
